Source: US20220332804A1 (CSL INNOVATION, published 2022)
Where a chain is given by its changes, count along the chain named.

Assays:
Assay in all cases: SPR, KD relative to WT C2;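 further: biacore SPR at 37 °C, anti-C2 mAbs captured via immobilised goat anti-human IgG, C2 alanine or serine surface mutants as analytes, 1:1 model fitted, double-referenced sensograms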
human C2 H446A = molecular target: T1, human C2 H446A (human, UniProt P06681 21-752)
T1 sequence: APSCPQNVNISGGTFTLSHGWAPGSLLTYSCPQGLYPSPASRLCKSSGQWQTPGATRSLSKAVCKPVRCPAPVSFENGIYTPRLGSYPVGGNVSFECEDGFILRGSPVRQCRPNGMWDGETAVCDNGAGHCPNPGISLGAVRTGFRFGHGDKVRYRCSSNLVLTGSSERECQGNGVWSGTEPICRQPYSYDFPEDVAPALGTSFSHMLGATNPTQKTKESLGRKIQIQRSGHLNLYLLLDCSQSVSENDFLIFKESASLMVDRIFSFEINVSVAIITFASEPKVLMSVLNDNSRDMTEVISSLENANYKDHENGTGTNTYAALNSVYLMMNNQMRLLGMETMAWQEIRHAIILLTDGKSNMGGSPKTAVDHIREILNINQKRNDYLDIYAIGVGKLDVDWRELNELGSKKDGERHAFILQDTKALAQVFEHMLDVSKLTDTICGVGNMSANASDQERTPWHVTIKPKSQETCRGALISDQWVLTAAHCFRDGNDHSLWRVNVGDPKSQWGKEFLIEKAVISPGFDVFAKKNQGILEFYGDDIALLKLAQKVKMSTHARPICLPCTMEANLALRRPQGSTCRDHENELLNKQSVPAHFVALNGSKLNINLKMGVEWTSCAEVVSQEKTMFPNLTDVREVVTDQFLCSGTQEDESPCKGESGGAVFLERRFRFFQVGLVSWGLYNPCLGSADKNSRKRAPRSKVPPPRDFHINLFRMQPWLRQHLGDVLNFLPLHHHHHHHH

human C2 S469A = molecular target: T2, human C2 S469A (human, UniProt P06681 21-752)
T2 sequence: T1 sequence with A426H, S449A

human C2 G530A = molecular target: T3, human C2 G530A (human, UniProt P06681 21-752)
T3 sequence: T1 sequence with A426H, G510A

human C2 T317A = molecular target: T4, human C2 T317A (human, UniProt P06681 21-752)
T4 sequence: T1 sequence with T297A, A426H

B1: RF16-226 (antibody, human IgG4 S228P, lambda)
heavy: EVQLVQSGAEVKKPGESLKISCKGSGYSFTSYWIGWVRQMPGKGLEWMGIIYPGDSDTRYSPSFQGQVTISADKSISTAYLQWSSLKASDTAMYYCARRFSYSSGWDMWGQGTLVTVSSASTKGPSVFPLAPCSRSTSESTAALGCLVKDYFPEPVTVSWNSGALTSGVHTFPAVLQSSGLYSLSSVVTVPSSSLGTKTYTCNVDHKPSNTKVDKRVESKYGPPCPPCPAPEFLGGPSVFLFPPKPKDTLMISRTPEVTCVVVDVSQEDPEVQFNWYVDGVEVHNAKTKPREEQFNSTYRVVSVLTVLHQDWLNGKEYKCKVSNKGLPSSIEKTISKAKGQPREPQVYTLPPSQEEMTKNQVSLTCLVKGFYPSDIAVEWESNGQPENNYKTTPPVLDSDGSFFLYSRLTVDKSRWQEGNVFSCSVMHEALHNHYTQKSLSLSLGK
light: SYELTQPPSVSVSPGQTARITCSGDALTSKYVAWYQQKSGLAPLLVIYEDTRRPSGIPAKFSGSSSGSVATLTISGAHGDDEADYYCYSTDASGHQRVFGGGTKLTVLSQPKAAPSVTLFPPSSEELQANKATLVCLISDFYPGAVTVAWKADGSPVKAGVETTKPSKQSNNKYAASSYLSLTPEQWKSHRSYSCQVTHEGSTVEKTVAPTECS
notes: pH-dependent anti-C2 antibody from a phage display library; also called WT
For B1, the Fold diff (human C2 H446A) was 2 fold, the Fold diff (human C2 S469A) was 3 fold and the Fold diff (human C2 G530A) was 2 fold. For the same binder, the Fold diff (human C2 T317A) was 1 fold.
